Biological target: T1, FLAG-tagged fragment of CC-afadin (coiled-coil region of afadin, aa 1386-1595) (mouse)
T1 chain: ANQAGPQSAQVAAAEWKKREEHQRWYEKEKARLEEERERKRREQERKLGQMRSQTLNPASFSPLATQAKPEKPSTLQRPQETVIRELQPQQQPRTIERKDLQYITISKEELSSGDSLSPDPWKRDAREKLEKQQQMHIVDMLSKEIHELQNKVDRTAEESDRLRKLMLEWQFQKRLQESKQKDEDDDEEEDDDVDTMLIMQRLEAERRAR
Experiment: sucrose density gradient centrifugation

B1: αE-catenin fragment MIII-C (aa 509-906) (domain or fragment)
chain: DDFLAVSENHILEDVNKCVIALQEKDVDGLDRTAGAIRGRAARVIHVVTSEMDNYEPGVYTEKVLEATKLLSNTVMPRFTEQVEAAVEALSSDPAQPMDENEFIDASRLVYDGIRDIRKAVLMIRTPEELDDSDFETEDFDVRSRTSVQTEDDQLIAGQSARAIMAQLPQEQKAKIAEQVASFQEEKSKLDAEVSKWDDSGNDIIVLAKQMCMIMMEMTDFTRGKGPLKNTSDVISAAKKIAEAGSRMDKLGRTIADHCPDSACKQDLLAYLQRIALYCHQLNICSKVKAEVQNLGGELVVSGVDSAMSLIQAAKNLMNAVVQTVKASYVASTKYQKSQGMASLNLPAVSWKMKAPEKKPLVKREKQDETQTKIKRASQKKHVNPVQALSEFKAMDSI
stoichiometry N: 1
